Test results as given in US10532083B2, “Methods for inducing differentiation or conversion of white adipocytes and/or preadipocytes to brown adipocites using FGF8” (Technische Universität München, priority 2014, dated 2020).

Columns and labels:
[1] = system: epididymal white adipose tissue; assay type: in vivo, adult male 129Sv/ev mice
Source text: Implantation of Ffg8b releasing pellets into the visceral, epididymal white adipose tissue depot leads to recruitment of brown adipocytes. A—Representative photographs centered on the implantation site of three control pellets (upper panels) and three Fgf8b pellets (lower panels). The epididymal fat depot is discernible in light gray shades surrounded by darker non-adipose tissues. The area of visible browning is marked by a dotted line. B—To highlight “visual browning” in this gray-scale images we digitally removed all pixels with a colour saturation of more than 162 (on a scale of 0-255). Here, white areas correspond to brown colour on a background of whitish adipose tissue. C—The mRNA abundance of several brown adipocyte marker genes in the entire depot. Ucp1 and Cox7a1 mRNA are increased by Fgf8b treatment but not by the placebo pellet. Physiological data of animals implanted with drug release pellets. A—The absolute body mass of mice was not altered by Fgf8b. […] C—The masses of the implanted epididymal fat depot and the contralateral non-implanted depot were not different. Interscapular brown adipose tissue was not different in placebo and Fgf8b treated animals. […] E—Plasma metabolites of carbohydrate and lipid metabolisms were not affected by Fgf8b treatment (GLU—glucose, CHOL—total cholesterol, nHDLc—non-HDL cholesterol, HDL—high density lipoproteins, LDL—low density lipoproteins, VLDL—very low density lipoproteins, TRIG—triglycerides). F—Liver enzymes in the plasma were not altered by Fgf8b treatment. Pellets 1.5 mm in diameter were fabricated from a biodegradable matrix to locally release 100 ng FGF8b per day for 21 days (Innovative Research of America, Sarasota, Fla., USA). […] To implant a pellet into the subcutaneous adipose tissue, a mouse of the 129Sv/ev strain was anesthetized, abdominal fur removed and the pellet pushed into the depot through a short cut in the skin. To target the visceral adipose tissue, the pellet was introduced through a small cut each into skin and abdominal wall and placed between lobes of epididymal adipose tissue. Mice were kept in a specific pathogen free barrier facility at room temperature in a 12:12 hour light:dark cycle with free access to food and water. Three weeks after implantation mice were killed by carbon dioxide exposure and dissected. Blood parameters were analyzed with an automated clinical chemistry analyzer (Piccolo xpress system, Abaxis, Darmstadt, Germany). All animal experiments were performed according to the German animal welfare law (permission no. 55.2-1-54-2532-174-11). To investigate the ability of FGF8b to transform white adipose tissue into brown adipose tissue in vivo, we obtained pellets that release 100 ng FGF8b per day and placebo pellets. One pellet each was implanted into the epididymal white adipose tissue of adult male 129Sv/ev mice. After three weeks mice were sacrificed and the tissue analyzed. […] In summary, we found no evidence of any gross metabolic difference between treatment groups.

[2] = system: visceral, epididymal white adipocytes; test: Ucp1 / brown adipocyte marker mRNA (qPCR) in immortalized epididymal white adipocytes treated with FGFs; assay type: cell-based, murine; conditions: for Induction of Ucp1 mRNA expression (browning potential), screening of paracrine FGFs and FGF8 spliceforms: epididymal adipocytes, six days of differentiation, FGF8a, b, e, f 25.0 ng/ml, FGF17 10.0 ng/ml
Description: Screening paracrine FGFs for a browning potential. A, B—Screening of all paracrine FGFs in immortalized white adipocytes. Subcutaneous, inguinal and visceral, epididymal white adipocytes were grown to confluence in Dulbecco's modified Eagle's medium with 4.5 g/l glucose, supplemented with 20 nmol/l insulin, 1 nmol/l triiodothyronine, 20% fetal bovine serum, and penicillin/streptomycin. Upon reaching confluence, differentiation was induced with 500 mmol/l isobutylmethylxanthine, 250 mmol/l indomethacine, and 2 mg/ml dexamethasone for 24 hours. Subsequently, members of the paracrine FGF protein family were added to the medium for the following six days. The medium and the FGF indicated were changed every 48 hours. Untreated cells served as a negative control. At the end of the differentiation process total RNA was isolated using TRIzol reagents, RNA quality and concentration was measured by photometric analysis, and 5 μg of total RNA was reverse-transcribed to cDNA. Finally, quantitative analysis of UCP-1 mRNA expression was performed. A bar graph analysis including the SEM of 3 to 6 independent experiments is shown. […] B—Four different splicing forms of the Fgf8 gene were compared by quantifying Ucp1 mRNA expression in fully differentiated white adipocytes. UCP-1 mRNA abundance is shown in percent of the FGF8b value. Fgf8b and Fgf8f were able to increase expression in epididymal adipocytes. C—Illustration depicting the different exon usage that characterizes the FGF8 spliceforms a, b, e, and f.
Dose dependency of Ffg8b action. A, B—Subcutaneous, inguinal and visceral, epididymal white adipocytes were grown to confluence in Dulbecco's modified Eagle's medium with 4.5 g/l glucose, supplemented with 20 nmol/l insulin, 1 nmol/l triiodothyronine, 20% fetal bovine serum, and penicillin/streptomycin. Upon reaching confluence, differentiation was induced with 500 mmol/l isobutylmethylxanthine, 250 mmol/l indomethacine, and 2 mg/ml dexamethasone for 24 hours. Subsequently, FGF8b in five indicated concentrations were added to the medium for the following six days. The medium and the FGF8b were changed every 48 hours. Untreated cells served as a negative control. At the end of the differentiation process total RNA was isolated using TRIzol reagents, RNA quality and concentration was measured by photometric analysis, and 5 μg of total RNA was reverse-transcribed to cDNA. Finally, quantitative analysis of UCP-1 mRNA expression was performed. FGF8b induces Ucp1 mRNA abundance in inguinal and epididymal adipocytes. Epididymal fat cells were more dose dependently responsive to Fgf8b treatment as compared to inguinal cells. The latter were responsive to FGF8b treatment above the threshold indicated. B—The absolute increase of several genes typical for brown fat cells.
Treatment timecourse experiment. A, B—Subcutaneous, inguinal and visceral, epididymal white adipocytes were grown to confluence (prolif. denotes proliferation period) in Dulbecco's modified Eagle's medium with 4.5 g/l glucose, supplemented with 20 nmol/l insulin, 1 nmol/l triiodothyronine, 20% fetal bovine serum, and penicillin/streptomycin. Upon reaching confluence, differentiation was induced with 500 mmol/l isobutylmethylxanthine, 250 mmol/l indomethacine, and 2 mg/ml dexamethasone for 24 hours (induction). Subsequently, the cells were cultured for another six days (differentiation). At the end of the differentiation process total RNA was isolated using TRIzol reagents, RNA quality and concentration was measured by photometric analysis, and 5 μg of total RNA was reverse-transcribed to cDNA. Finally, quantitative analysis of UCP-1 mRNA expression was performed. Untreated cells served as a negative control. A bar graph analysis including the SEM of 5 independent experiments is shown. A—Epididymal fat cells were treated with FGF8b during different time windows as given by black squares indicating one day of treatment each. […]

[3] = RNA preparation of complete unilateral epididymal depot, 100 ng per day, three weeks, vs placebo pellet

B1: FGF8b: murine recombinant paracrine fibroblast growth factor 8, major spliceform b (R&D Systems); amino acid sequence identical to human, SEQ ID NO:16/20 (protein)
chain: MGSPRSALSCLLLHLLVLCLQAQVTVQSSPNFTQHVREQSLVTDQLSRRLIRTYQLYSRTSGKHVQVLANKRINAMAEDGDPFAKLIVETDTFGSRVRVRGAETGLYICMNKKGKLIAKSNGKGKDCVFTEIVLENNYTALQNAKYEGWYMAFTRKGRPRKGSKTRQHQREVHFMKRLPRGHHTTEQSLRFEFLNYPPFTRSLRGSQRTWAPEPR
modifications: human FGF8b
[1]; 100 ng per day, three weeks, vs placebo (FIG. 7D)
  Relationship between depot mass and body mass: not influenced
[1]; 100 ng per day, three weeks, vs placebo group
  Depot mass of implanted and non-implanted epididymal fat and of interscapular brown adipose tissue: not different between groups
[1]; 100 ng per day, three weeks, vs placebo group, lean healthy mice
  Final body weight: comparable
[1]; 100 ng per day, three weeks, vs placebo, Piccolo xpress analyzer
  Plasma metabolites of carbohydrate and lipid metabolisms (GLU, CHOL, nHDLc, HDL, LDL, VLDL, TRIG): not affected
[1]; 100 ng per day, vs placebo group
  Change in body weight during the 3 weeks of treatment: comparable
[1]; [3]
  Cox7a1 mRNA abundance in the entire depot: increased
  Ucp1 mRNA abundance in the entire depot: increased
[1]; mouse, in vivo
  Systemic adverse reaction: no evidence for any systemic adverse reaction
[1]; one pellet releasing 100 ng FGF8b per day, three weeks
  Extent of browned area away from the implanted pellet: approximately 3 mm
[1]; one pellet releasing 100 ng FGF8b per day, three weeks, placebo site and contralateral depot remained white
  Colour of implantation site and surrounding adipose tissue by visual inspection: brown colour
[2]; continuous treatment during differentiation, fully differentiated adipocytes (FIG. 2B)
  Pgc1a mRNA: strongly downregulated
[2]
  Induction of Ucp1 mRNA expression (browning potential), screening of paracrine FGFs and FGF8 spliceforms: increased expression of Ucp1 mRNA expression
[2]; listed as Fgf8b
  Induction of Ucp1 mRNA expression (browning potential), screening of paracrine FGFs and FGF8 spliceforms: effective
[2]; epididymal cells, different concentrations during entire differentiation phase of 6 days
  Ucp1 mRNA abundance, dose dependency: dose dependent manner
[2]; epididymal cells, highest concentration tested, 6 days of differentiation
  Most effective concentration for Ucp1 induction: 125 ng/mL
[2]; epididymal cells, treatment during the induction period
  Final Ucp1 mRNA abundance after full differentiation: inhibited Ucp1 induction
[2]; fully differentiated epididymal cell line, treatment after induction for entire differentiation period of 6 days, screening concentration 25.0 ng/ml, untreated cells as control
  Ucp1 mRNA abundance, induction: 27.4 fold
